Results as given in PMC9956121.

Assays:
[1] = molecular target: hTAPBPR^KRQ (R105K, K211R, R270Q), luminal domain, C94S (human); assay: SPR; biotinylated hTAPBPR mutants immobilised on a streptavidin chip; Ac-6-FP-loaded MR1 C262S flowed over at 0-100 µM; 25°C; 150 mM NaCl, 20 mM sodium phosphate pH 7.4, 0.1% Tween 20; one site-specific binding fit
[2] = molecular target: hTAPBPR^RQ (K211R, R270Q), luminal domain, C94S (human); assay: as above
[3] = molecular target: hTAPBPR^FLQ (S104F, K211L, R270Q), luminal domain, C94S (human); assay: as above
[4] = molecular target: human TAPBPR (TAP binding protein, related), luminal domain (human); assay: SPR; biotinylated TAPBPR on a streptavidin chip; MR1 C262S injected at 0-100 μM; 25°C; 150 mM NaCl, 20 mM sodium phosphate pH 7.4, 0.1% Tween 20
[5] = molecular target: chicken TAPBPR, luminal domain (chicken (G. gallus)); assay: as above
[6] = molecular target: peptide-deficient (empty) HLA-A*01:01/hβ2m (human)
[7] = molecular target: peptide-deficient (empty) HLA-A*11:01/hβ2m (human)
[8] = molecular target: peptide-deficient (empty) HLA-A*24:02/hβ2m (human)
[9] = molecular target: peptide-loaded HLA-A*02:01/hβ2m (photolabile peptide KILGFVFJV) (human)
[10] = molecular target: HLA-A*02:06/hβ2m loaded with a placeholder peptide (human)
[11] = molecular target: HLA-A*02:77/hβ2m loaded with a placeholder peptide (human)
[12] = molecular target: HLA-A*02:71/hβ2m loaded with a placeholder peptide (human)
[13] = molecular target: peptide-deficient (empty) HLA-A*02:01/hβ2m (human)
[14] = molecular target: peptide-deficient (empty) HLA-A*02:01/hβ2m (human); remark: listed apart in the source
[15] = molecular target: peptide-deficient (empty) HLA-B*37:01/hβ2m (human)
[16] = molecular target: chicken TAPBPR, luminal domain (chicken (G. gallus)); assay: SPR; biotinylated TAPBPR (about 1000 RU) on a streptavidin chip; HLA UV-irradiated 20 min at 365 nm just before injection at 0-20 μM; 25°C; 150 mM NaCl, 20 mM sodium phosphate pH 7.4, 0.1% Tween 20
[17] = molecular target: hTAPBPR^RQ (K211R and R270Q), soluble ectodomain (human); assay: as above
[18] = molecular target: hTAPBPR^FLQ (S104F, K211L, and R270Q), soluble ectodomain (human); assay: as above
[19] = molecular target: human TAPBPR (TAP binding protein, related), luminal domain (human); assay: as above
[20] = molecular target: human TAPBPR (TAP binding protein, related), luminal domain (human); assay: SPR; biotinylated TAPBPR (about 1000 RU) on a streptavidin chip; peptide-loaded HLA, not UV-irradiated, injected at 0-20 μM; 25°C; 150 mM NaCl, 20 mM sodium phosphate pH 7.4, 0.1% Tween 20
[21] = molecular target: hTAPBPR^KRQ (R105K, K211R, R270Q), luminal domain, C94S (human); assay: SPR; biotinylated TAPBPR (about 1000 RU) immobilised on a streptavidin chip; peptide-loaded HLA (photolabile peptide, no UV) flowed over at 0-20 µM; 25°C; 150 mM NaCl, 20 mM sodium phosphate pH 7.4, 0.1% Tween 20; 30 µl/min, 60 s injection, 180 s dissociation; kinetic fit or one site-specific binding …
[22] = molecular target: hTAPBPR^RQ (K211R, R270Q), luminal domain, C94S (human); assay: as above
[23] = molecular target: hTAPBPR^FLQ (S104F, K211L, R270Q), luminal domain, C94S (human); assay: as above
[24] = molecular target: chicken TAPBPR, luminal domain (chicken (G. gallus)); assay: SPR; biotinylated TAPBPR (about 1000 RU) on a streptavidin chip; peptide-loaded HLA, not UV-irradiated, injected at 0-20 μM; 25°C; 150 mM NaCl, 20 mM sodium phosphate pH 7.4, 0.1% Tween 20
[25] = molecular target: chicken TAPBPR, luminal domain (chicken (G. gallus)); assay: ITC; 150 μM pHLA-B*08:01 in the syringe titrated into 5 μM chTAPBPR in the cell, both with 0.45 mM FLRGRAJGL; 150 mM NaCl, 20 mM sodium phosphate pH 7.2; one-site model; apparent KD

MR1 C262S loaded with acetyl-6-formylpterin (Ac-6-FP) (complex)
Kd [1]: 62 µM
Kd [2]: 49.5 µM
Kd [3]: 48 µM

acetyl-6-formylpterin-loaded MR1 C262S/hβ2m (from UniProt P61769 21-119) (complex)
Kd [4]: 98.7 µM
Kd [5]: 19.2 µM

chicken TAPBPR, luminal domain (domain or fragment)
kapp of fluorescent peptide binding to HLA-A*01:01 with 5 μM TAPBPR (FP) [6]: 0.00017 s⁻¹
overall exchange rate (FP), against hTAPBPR [7]: > 17 fold
overall exchange rate (FP), against hTAPBPR [8]: > 7 fold

hTAPBPR^FLQ (S104F, K211L, and R270Q), soluble ectodomain (domain or fragment)
kapp of fluorescent peptide binding to HLA-A*01:01 with 5 μM TAPBPR (FP) [6]: 7e-05 s⁻¹
k2overall of exchange of KILGFVFβFV-loaded HLA-A*02:01 with TAMRA-[…] (FP), against hTAPBPR [9]: 90 fold
k2overall of peptide exchange (FP), against hTAPBPR [10]: 14 fold

hTAPBPR^KRQ (R105K, K211R, and R270Q), soluble ectodomain (domain or fragment)
kapp of fluorescent peptide binding to HLA-A*01:01 with 5 μM TAPBPR (FP) [6]: 0.00013 s⁻¹
k2overall of exchange of KILGFVFβFV-loaded HLA-A*02:01 with TAMRA-[…] (FP), against hTAPBPR [9]: 60 fold
k2overall of peptide exchange (FP), against hTAPBPR [10]: 9 fold

hTAPBPR^RQ (K211R and R270Q), soluble ectodomain (domain or fragment)
kapp of fluorescent peptide binding to HLA-A*01:01 with 5 μM TAPBPR (FP) [6]: 0.00014 s⁻¹
k2overall of exchange of KILGFVFβFV-loaded HLA-A*02:01 with TAMRA-[…] (FP), against hTAPBPR [9]: 60 fold
k2overall of peptide exchange (FP), against hTAPBPR [10]: 9 fold

human TAPBPR (TAP binding protein, related), luminal domain (domain or fragment)
k2overall of peptide exchange (FP) [11]: 17200 M⁻¹ s⁻¹
k2overall of peptide exchange (FP) [12]: 335 M⁻¹ s⁻¹
k2overall of peptide exchange (FP) [13]: 1160 M⁻¹ s⁻¹
k2overall of peptide exchange (FP), against chTAPBPR [14]: 8 fold
k2overall of peptide exchange (FP), against chTAPBPR [15]: 5 fold lower

peptide-deficient (empty) HLA-A*01:01/hβ2m (from UniProt P61769 21-119) (complex)
Kd [16]: 1.46 µM

peptide-deficient (empty) HLA-A*02:01/hβ2m (from UniProt P61769 21-119) (complex)
Kd [17]: 0.188 µM
Kd [18]: 0.081 µM
Kd [19]: 0.17 µM
Kd [16]: 2.96 µM

peptide-deficient (empty) HLA-A*11:01/hβ2m (from UniProt P61769 21-119) (complex)
Kd [19]: 2.04 µM
Kd [16]: 0.91 µM

peptide-deficient (empty) HLA-A*24:02/hβ2m (from UniProt P61769 21-119) (complex)
Kd [19]: 2.54 µM
Kd [16]: 1.68 µM

peptide-deficient (empty) HLA-A*29:02/hβ2m (from UniProt P61769 21-119) (complex)
Kd [19]: 0.26 µM
Kd [16]: 0.29 µM

peptide-deficient (empty) HLA-A*30:01/hβ2m (from UniProt P61769 21-119) (complex)
Kd [19]: 0.99 µM
Kd [16]: 1.28 µM

peptide-deficient (empty) HLA-A*68:02/hβ2m (from UniProt P61769 21-119) (complex)
Kd [19]: 0.12 µM
Kd [16]: 0.43 µM

peptide-deficient (empty) HLA-B*08:01/hβ2m (from UniProt P61769 21-119) (complex)
Kd [16]: 1.89 µM

peptide-deficient (empty) HLA-B*37:01/hβ2m (from UniProt P61769 21-119) (complex)
Kd [19]: 7.02 µM
Kd [16]: 2.19 µM

peptide-deficient (empty) HLA-E*01:03/hβ2m (from UniProt P61769 21-119) (complex)
Kd [19]: 1.51 µM

peptide-deficient (empty) HLA-G*01:01/hβ2m (from UniProt P61769 21-119) (complex)
Kd [16]: 11.2 µM

peptide-loaded HLA-A*02:01/hβ2m (photolabile peptide KILGFVFJV) (from UniProt P61769 21-119) (peptide-MHC)
Kd [20]: 9.44 µM

peptide-loaded HLA-A*02:01/hβ2m/KILGFVFJV (from UniProt P61769 21-119) (peptide-MHC)
Kd [21]: 1.38 µM
Kd [22]: 1.31 µM
Kd [23]: 1.26 µM

peptide-loaded HLA-A*24:02/hβ2m (photolabile peptide VYGJVRACL) (from UniProt P61769 21-119) (peptide-MHC)
Kd [20]: 10.9 µM
Kd [24]: 17.4 µM

peptide-loaded HLA-A*29:02/hβ2m (photolabile peptide) (from UniProt P61769 21-119) (peptide-MHC)
Kd [20]: 0.19 µM
Kd [24]: 0.17 µM

peptide-loaded HLA-A*30:01/hβ2m (photolabile peptide) (from UniProt P61769 21-119) (peptide-MHC)
Kd [20]: 0.95 µM

peptide-loaded HLA-A*68:02/hβ2m (photolabile peptide) (from UniProt P61769 21-119) (peptide-MHC)
Kd [20]: 0.22 µM
Kd [24]: 0.56 µM

peptide-loaded HLA-B*08:01/hβ2m (photolabile peptide FLRGRAJGL) (from UniProt P61769 21-119) (peptide-MHC)
Kd [25]: 4.6 µM
Kd [24]: 3.19 µM
